Data from patent US20200317768A1 (published 2020).
Positions count from the first letter of the chain named. Numbers in names are those of the source.

T1: human FcγRIIb extracellular domain, C-terminal His-tag (human, UniProt P31994 43-217)
T1 construct: also called FcgRIIb (human)
T1 sequence: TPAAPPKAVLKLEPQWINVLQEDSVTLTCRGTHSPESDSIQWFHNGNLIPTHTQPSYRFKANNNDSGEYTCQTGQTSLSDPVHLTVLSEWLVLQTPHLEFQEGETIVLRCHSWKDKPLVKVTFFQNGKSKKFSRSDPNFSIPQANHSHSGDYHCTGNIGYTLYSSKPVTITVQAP

T2: human FcγRIIaH extracellular domain, C-terminal His-tag (human, UniProt P12318 34-217)
T2 construct: also called human FcγRIIa (type H); FcgRIIaH
T2 sequence: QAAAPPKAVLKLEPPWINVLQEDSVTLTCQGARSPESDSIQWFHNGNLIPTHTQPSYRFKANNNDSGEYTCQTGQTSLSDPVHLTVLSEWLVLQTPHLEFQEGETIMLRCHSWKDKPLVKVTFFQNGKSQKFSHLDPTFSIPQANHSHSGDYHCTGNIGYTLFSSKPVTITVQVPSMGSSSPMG

T3: human FcγRIIaR extracellular domain, C-terminal His-tag (human, UniProt P12318 34-217)
T3 construct: also called human FcγRIIa (type R); FcgRIIaR
T3 chain: T2 sequence with H134R

B1: GpH7-B3 variant G236N/GpL16-k0 (antibody, human IgG1, kappa)
heavy: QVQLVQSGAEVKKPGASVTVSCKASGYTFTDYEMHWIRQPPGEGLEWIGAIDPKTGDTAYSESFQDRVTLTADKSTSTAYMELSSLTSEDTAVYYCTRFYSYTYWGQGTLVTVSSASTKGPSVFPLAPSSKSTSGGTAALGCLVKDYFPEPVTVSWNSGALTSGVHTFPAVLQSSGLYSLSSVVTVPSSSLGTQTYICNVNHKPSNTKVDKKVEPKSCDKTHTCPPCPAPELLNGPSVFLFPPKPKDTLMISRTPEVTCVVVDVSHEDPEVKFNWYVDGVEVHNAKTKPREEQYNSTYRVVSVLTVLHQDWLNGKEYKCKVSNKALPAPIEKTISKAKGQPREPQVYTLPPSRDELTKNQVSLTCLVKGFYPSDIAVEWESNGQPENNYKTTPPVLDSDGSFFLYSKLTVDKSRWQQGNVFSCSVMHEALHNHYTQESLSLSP
light: DIVMTQSPLSLPVTPGEPASISCQASESLVHSNRNTYLHWYLQKPGQSPQLLIYKVSNRFSGVPDRFSGSGSGTDFTLKISRVEAEDVGVYYCSQNTHVPPTFGQGTKVEIERTVAAPSVFIFPPSDEQLKSGTASVVCLLNNFYPREAKVQWKVDNALQSGNSQESVTEQDSKDSTYSLSSTLTLSKADYEKHKVYACEVTHQGLSSPVTKSFNRGEC
B2: GpH7-B3 variant A327I/GpL16-k0 (antibody, human IgG1, kappa)
heavy: not shown
light: B1 light
B3: GpH7-B3 variant P238Y/GpL16-k0 (antibody, human IgG1, kappa)
heavy: not shown
light: B1 light
B4: GpH7-B3 variant G236E/GpL16-k0 (antibody, human IgG1, kappa)
heavy: not shown
light: B1 light
B5: GpH7-B3 variant K334V/GpL16-k0 (antibody, human IgG1, kappa)
heavy: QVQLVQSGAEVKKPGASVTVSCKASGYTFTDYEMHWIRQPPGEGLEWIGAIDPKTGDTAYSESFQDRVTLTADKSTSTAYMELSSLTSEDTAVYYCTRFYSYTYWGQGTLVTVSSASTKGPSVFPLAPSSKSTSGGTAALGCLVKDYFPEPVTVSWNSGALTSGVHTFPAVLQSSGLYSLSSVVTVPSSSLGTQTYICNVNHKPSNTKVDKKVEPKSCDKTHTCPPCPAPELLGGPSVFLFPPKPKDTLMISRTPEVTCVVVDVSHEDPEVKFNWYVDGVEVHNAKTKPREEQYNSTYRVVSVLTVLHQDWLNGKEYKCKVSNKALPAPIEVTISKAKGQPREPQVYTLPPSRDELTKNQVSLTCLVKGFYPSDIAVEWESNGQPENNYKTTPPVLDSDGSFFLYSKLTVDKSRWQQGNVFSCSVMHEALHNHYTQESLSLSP
light: B1 light
B6: GpH7-B3 variant Q295L/GpL16-k0 (antibody, human IgG1, kappa)
heavy: not shown
light: B1 light
B7: GpH7-B3 variant G236S/GpL16-k0 (antibody, human IgG1, kappa)
heavy: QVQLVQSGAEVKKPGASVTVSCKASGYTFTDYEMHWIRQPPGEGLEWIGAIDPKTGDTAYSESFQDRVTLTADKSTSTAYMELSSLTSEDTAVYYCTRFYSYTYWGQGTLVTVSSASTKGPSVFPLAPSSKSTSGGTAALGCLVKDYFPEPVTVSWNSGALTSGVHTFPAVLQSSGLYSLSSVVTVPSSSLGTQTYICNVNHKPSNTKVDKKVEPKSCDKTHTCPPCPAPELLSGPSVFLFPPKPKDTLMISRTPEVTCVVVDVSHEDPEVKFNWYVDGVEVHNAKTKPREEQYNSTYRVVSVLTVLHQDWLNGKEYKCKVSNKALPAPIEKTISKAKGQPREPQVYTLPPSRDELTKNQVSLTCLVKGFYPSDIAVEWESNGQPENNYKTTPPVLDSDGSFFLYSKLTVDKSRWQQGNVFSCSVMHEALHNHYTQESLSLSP
light: B1 light
B8: GpH7-B3 variant P271G/GpL16-k0 (antibody, human IgG1, kappa)
heavy: not shown
light: B1 light
B9: GpH7-B3 variant P271D/GpL16-k0 (antibody, human IgG1, kappa)
heavy: not shown
light: B1 light
B10: GpH7-B3 variant K334I/GpL16-k0 (antibody, human IgG1, kappa)
heavy: not shown
light: B1 light
B11: GpH7-B3 variant G236D/GpL16-k0 (antibody, human IgG1, kappa)
heavy: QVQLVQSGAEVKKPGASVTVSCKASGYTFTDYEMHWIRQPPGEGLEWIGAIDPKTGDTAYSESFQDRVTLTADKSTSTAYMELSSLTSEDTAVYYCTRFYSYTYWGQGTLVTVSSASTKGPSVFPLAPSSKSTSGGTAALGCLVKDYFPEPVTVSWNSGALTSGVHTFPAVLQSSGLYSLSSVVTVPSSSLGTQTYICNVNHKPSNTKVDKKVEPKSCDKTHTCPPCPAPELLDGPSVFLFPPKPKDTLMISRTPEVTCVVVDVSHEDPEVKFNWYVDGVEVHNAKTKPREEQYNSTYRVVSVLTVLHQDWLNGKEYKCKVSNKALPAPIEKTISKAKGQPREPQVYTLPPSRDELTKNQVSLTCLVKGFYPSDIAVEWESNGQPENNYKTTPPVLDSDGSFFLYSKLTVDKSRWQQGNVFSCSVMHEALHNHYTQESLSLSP
light: B1 light
B12: GpH7-B3 variant L234W/GpL16-k0 (antibody, human IgG1, kappa)
heavy: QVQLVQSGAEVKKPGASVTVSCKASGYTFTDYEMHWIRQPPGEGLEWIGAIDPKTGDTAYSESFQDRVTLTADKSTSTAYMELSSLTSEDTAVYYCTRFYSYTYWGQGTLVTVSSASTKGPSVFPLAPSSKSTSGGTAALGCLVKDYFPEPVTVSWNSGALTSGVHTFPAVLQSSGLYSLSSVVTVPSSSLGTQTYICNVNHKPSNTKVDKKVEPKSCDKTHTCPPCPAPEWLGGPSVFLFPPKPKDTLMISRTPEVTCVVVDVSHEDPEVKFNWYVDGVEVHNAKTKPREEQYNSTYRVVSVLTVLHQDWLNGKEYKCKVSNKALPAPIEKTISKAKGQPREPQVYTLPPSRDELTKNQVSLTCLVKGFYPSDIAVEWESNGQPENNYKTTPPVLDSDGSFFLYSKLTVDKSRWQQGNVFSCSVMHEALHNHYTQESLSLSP
light: B1 light
B13: GpH7-B3 variant K326T/GpL16-k0 (antibody, human IgG1, kappa)
heavy: not shown
light: B1 light
B14: GpH7-B3 variant L235W/GpL16-k0 (antibody, human IgG1, kappa)
heavy: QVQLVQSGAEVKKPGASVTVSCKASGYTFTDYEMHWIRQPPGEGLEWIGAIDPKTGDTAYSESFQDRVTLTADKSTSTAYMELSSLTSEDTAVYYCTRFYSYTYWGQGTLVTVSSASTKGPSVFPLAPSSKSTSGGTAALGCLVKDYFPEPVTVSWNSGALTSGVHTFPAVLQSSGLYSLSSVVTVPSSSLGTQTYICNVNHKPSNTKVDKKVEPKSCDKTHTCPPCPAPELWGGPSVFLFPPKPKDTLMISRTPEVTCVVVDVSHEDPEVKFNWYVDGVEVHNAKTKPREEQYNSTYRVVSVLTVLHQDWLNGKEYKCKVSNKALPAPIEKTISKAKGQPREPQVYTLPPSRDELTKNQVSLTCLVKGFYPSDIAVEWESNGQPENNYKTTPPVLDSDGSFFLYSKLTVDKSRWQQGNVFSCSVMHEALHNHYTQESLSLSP
light: B1 light
B15: GpH7-B3 variant K334Y/GpL16-k0 (antibody, human IgG1, kappa)
heavy: not shown
light: B1 light
B16: GpH7-B3 variant H268D/GpL16-k0 (antibody, human IgG1, kappa)
heavy: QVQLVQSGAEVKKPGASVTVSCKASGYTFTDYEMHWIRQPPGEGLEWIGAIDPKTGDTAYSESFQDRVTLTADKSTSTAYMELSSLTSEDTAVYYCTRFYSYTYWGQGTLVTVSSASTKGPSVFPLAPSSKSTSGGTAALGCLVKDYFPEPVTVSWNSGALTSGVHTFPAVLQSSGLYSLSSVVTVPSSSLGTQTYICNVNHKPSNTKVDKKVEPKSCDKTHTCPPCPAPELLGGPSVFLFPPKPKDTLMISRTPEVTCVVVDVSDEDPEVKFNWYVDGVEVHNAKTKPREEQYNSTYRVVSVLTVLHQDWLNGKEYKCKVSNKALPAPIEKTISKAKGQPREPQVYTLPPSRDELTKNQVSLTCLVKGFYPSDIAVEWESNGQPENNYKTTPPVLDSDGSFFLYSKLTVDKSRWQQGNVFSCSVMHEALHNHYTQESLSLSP
light: B1 light
B17: GpH7-B3 variant K334M/GpL16-k0 (antibody, human IgG1, kappa)
heavy: not shown
light: B1 light
B18: GpH7-B3 variant I332D/GpL16-k0 (antibody, human IgG1, kappa)
heavy: not shown
light: B1 light
B19: GpH7-B3 variant N325E/GpL16-k0 (antibody, human IgG1, kappa)
heavy: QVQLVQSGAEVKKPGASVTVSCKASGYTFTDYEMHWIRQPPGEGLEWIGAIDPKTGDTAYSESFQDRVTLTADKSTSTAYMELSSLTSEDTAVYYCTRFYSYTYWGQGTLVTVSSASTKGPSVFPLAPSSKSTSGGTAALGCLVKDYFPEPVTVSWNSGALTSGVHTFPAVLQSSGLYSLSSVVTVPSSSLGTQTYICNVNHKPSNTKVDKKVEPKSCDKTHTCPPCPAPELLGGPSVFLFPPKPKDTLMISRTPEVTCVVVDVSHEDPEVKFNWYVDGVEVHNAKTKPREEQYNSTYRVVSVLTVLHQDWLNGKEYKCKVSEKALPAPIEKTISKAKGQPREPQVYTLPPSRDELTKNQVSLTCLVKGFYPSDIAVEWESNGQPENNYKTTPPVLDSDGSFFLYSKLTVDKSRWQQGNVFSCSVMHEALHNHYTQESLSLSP
light: B1 light
B20: GpH7-B3 variant G236A/GpL16-k0 (antibody, human IgG1, kappa)
heavy: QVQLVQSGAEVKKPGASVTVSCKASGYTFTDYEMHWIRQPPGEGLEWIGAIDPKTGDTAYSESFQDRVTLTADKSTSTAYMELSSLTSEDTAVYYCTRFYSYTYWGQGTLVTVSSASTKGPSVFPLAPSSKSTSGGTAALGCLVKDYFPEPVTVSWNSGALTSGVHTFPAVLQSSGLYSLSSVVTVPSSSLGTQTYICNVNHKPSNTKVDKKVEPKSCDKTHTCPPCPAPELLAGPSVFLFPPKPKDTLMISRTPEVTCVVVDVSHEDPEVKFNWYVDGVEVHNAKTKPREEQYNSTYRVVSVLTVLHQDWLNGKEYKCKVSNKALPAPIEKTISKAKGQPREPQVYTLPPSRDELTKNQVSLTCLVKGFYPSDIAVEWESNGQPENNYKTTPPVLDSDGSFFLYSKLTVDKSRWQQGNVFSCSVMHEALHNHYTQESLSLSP
light: B1 light
B21: GpH7-B3 variant P331E/GpL16-k0 (antibody, human IgG1, kappa)
heavy: not shown
light: B1 light
B22: GpH7-B3 variant G237D/GpL16-k0 (antibody, human IgG1, kappa)
heavy: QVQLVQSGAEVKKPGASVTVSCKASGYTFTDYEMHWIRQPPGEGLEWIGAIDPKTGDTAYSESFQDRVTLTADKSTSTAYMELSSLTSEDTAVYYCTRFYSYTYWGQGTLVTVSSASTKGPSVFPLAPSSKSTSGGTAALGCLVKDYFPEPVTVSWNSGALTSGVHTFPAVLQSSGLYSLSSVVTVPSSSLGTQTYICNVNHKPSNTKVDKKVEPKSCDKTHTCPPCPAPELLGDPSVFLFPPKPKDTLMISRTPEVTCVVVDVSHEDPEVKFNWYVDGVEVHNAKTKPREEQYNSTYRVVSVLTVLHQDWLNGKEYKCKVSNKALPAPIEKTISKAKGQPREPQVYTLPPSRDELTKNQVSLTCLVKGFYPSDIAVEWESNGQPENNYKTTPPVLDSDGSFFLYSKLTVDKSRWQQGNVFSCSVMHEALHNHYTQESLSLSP
light: B1 light
B23: GpH7-B3 variant H268E/GpL16-k0 (antibody, human IgG1, kappa)
heavy: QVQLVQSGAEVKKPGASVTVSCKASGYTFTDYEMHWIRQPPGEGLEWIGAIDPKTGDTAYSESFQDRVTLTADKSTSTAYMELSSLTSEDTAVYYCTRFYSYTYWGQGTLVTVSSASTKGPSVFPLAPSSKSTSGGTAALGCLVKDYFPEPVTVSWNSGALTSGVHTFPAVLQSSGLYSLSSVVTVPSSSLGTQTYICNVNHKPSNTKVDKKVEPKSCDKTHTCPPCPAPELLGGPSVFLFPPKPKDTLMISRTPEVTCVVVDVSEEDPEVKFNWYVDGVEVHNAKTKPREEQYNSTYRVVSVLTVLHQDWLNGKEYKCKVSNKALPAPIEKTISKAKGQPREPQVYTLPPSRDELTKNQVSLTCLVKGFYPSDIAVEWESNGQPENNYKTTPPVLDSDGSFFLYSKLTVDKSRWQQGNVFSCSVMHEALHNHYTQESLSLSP
light: B1 light
B24: GpH7-B3 variant P238Q/GpL16-k0 (antibody, human IgG1, kappa)
heavy: not shown
light: B1 light
B25: GpH7-B3 variant S239P/GpL16-k0 (antibody, human IgG1, kappa)
heavy: not shown
light: B1 light
B26: GpH7-B3 variant L234Y/GpL16-k0 (antibody, human IgG1, kappa)
heavy: not shown
light: B1 light
B27: GpH7-B3 variant K334D/GpL16-k0 (antibody, human IgG1, kappa)
heavy: not shown
light: B1 light
B28: GpH7-B3 variant L328T/GpL16-k0 (antibody, human IgG1, kappa)
heavy: not shown
light: B1 light

Biological target: T1, human FcγRIIb extracellular domain, …
Assay: SPR 25C; FcgR bound per captured antibody, relative to parent B3
Protocol: (§1) These Fc variants are referred to as B3 variants. B3 variants were expressed and the binding of protein-A purified antibodies to each FcγR (FcγRIIa type H. FcγRIIa type R, FcγRIIb, and FcγRIIIaF) was comprehensively evaluated as follows. Analysis of interaction between each altered antibody and the Fcγ receptor prepared as mentioned above was carried out using BIACORE® T100 (GE Healthcare), BIACORE® T200 (GE Healthcare), BIACORE® A100, or BIACORE® 4000. HBS-EP+(GE Healthcare) was used as the running buffer, and the measurement temperature was set to 25° C. Chips produced by immobilizing Protein A (Thermo Scientific), Protein A/G (Thermo Scientific), or Protein L (ACTIGEN or BioVision) by the amine coupling method to a Series S sensor Chip CM5 or CM4 (GE Healthcare) were used. After capturing of antibodies of interest onto these sensor chips, an Fcγ receptor diluted with the running buffer was allowed to interact, the amount bound to an antibody was measured. However, since the amount of Fcγ receptor bound depends on the amount of the captured antibodies, the amount of Fcγ receptor bound was divided by the amount of each antibody captured to obtain corrected values, and these values were compared. Furthermore, antibodies captured onto the chips were washed by 10 mM glycine-HCl pH1.5, and the chips were regenerated and used repeatedly. […] The value obtained by multiplying this value by 100 was used as an indicator of the relative FcγR-binding activity of each variant.

Binding to human FcgRs (parent B3 = 100)	Binder
75 parent B3 = 100	B1
46 parent B3 = 100	B2
114 parent B3 = 100	B3
117 parent B3 = 100	B4
184 parent B3 = 100	B5
156 parent B3 = 100	B6
87 parent B3 = 100	B7
252 parent B3 = 100	B8
110 parent B3 = 100	B9
174 parent B3 = 100	B10
212 parent B3 = 100	B11
90 parent B3 = 100	B12
195 parent B3 = 100	B13
130 parent B3 = 100	B14
160 parent B3 = 100	B15
307 parent B3 = 100	B16
148 parent B3 = 100	B17
198 parent B3 = 100	B18
40 parent B3 = 100	B19
94 parent B3 = 100	B20
100 parent B3 = 100	B21
95 parent B3 = 100	B22
283 parent B3 = 100	B23
43 parent B3 = 100	B24
61 parent B3 = 100	B25
55 parent B3 = 100	B26
108 parent B3 = 100	B27
179 parent B3 = 100	B28

Biological target: T2, human FcγRIIaH extracellular domain, …
Assay: as above
Protocol: as §1

Binding to human FcgRs (parent B3 = 100)	Binder
54 parent B3 = 100	B1
37 parent B3 = 100	B2
93 parent B3 = 100	B3
142 parent B3 = 100	B4
172 parent B3 = 100	B5
128 parent B3 = 100	B6
147 parent B3 = 100	B7
152 parent B3 = 100	B8
169 parent B3 = 100	B10
109 parent B3 = 100	B11
64 parent B3 = 100	B12
138 parent B3 = 100	B13
136 parent B3 = 100	B14
157 parent B3 = 100	B15
173 parent B3 = 100	B16
151 parent B3 = 100	B17
129 parent B3 = 100	B18
49 parent B3 = 100	B19
165 parent B3 = 100	B20
96 parent B3 = 100	B21
74 parent B3 = 100	B22
169 parent B3 = 100	B23
19 parent B3 = 100	B24
49 parent B3 = 100	B25
38 parent B3 = 100	B26
97 parent B3 = 100	B27
156 parent B3 = 100	B28

Biological target: T3, human FcγRIIaR extracellular domain, …
Assay: as above
Protocol: as §1

Binding to human FcgRs (parent B3 = 100)	Binder
81 parent B3 = 100	B1
12 parent B3 = 100	B2
131 parent B3 = 100	B4
132 parent B3 = 100	B5
148 parent B3 = 100	B6
161 parent B3 = 100	B7
130 parent B3 = 100	B8
55 parent B3 = 100	B9
137 parent B3 = 100	B10
91 parent B3 = 100	B11
63 parent B3 = 100	B12
127 parent B3 = 100	B13
128 parent B3 = 100	B14
131 parent B3 = 100	B15
142 parent B3 = 100	B16
127 parent B3 = 100	B17
139 parent B3 = 100	B18
13 parent B3 = 100	B19
168 parent B3 = 100	B20
67 parent B3 = 100	B21
0 parent B3 = 100	B22
132 parent B3 = 100	B23
4 parent B3 = 100	B24
50 parent B3 = 100	B26
72 parent B3 = 100	B27
135 parent B3 = 100	B28
